Our source for the Km values is article doi:10.1101/2020.08.16.253419v1.

In this data set the test system is Nc1nc2c(ncn2[C@@H]2O[C@H](COP(=O)(O)OP(=O)(O)OP(=O)(O)O)[C@@H](O)[C@H]2O)c(=O)[nH]1. The data set is described as follows: malachite green. It is filed as biochemical, Streptococcus thermophilus. Particulars: 20 mM Tris pH 8.0, 200 mM KCl, 5 mM MgCl2, 37 °C.

For “StNFeoB (Streptococcus thermophilus LMG 18311; E66Q/E67Q)”, the Km (as a rule, the substrate concentration at which the rate is half of its maximum) is listed as 187 ± 20 µM.
